Assay results taken from patent US20040248785A1 (UNIVERSITY OF MARYLAND BALTIMORE, published 2004).

Experiments:
[1] = molecular target: T1, low density lipoprotein receptor-related protein / alpha2-macroglobulin receptor (LRP), isolated from human … (human, UniProt Q07954 20-4544); assay: heterologous displacement of 125I-fVIII (1 nM) from LRP-coated wells; HCh as competitor
T1 construct: mature; Native receptor coated on microtiter wells; also called purified LRP; immobilized LRP
Procedure: (§1) Homologous and heterologous ligand displacement assays were performed as previously described (Williams, S. E., et al., J. Biol. Chem. 267:9035-9040 (1992)). Microtiter wells were coated with purified LRP or BSA (3 μg/ml) in 50 mM Tris, 0.15 M NaCl, pH 8.0, for 16 h and then blocked with 3% BSA in TBS. Coated wells were incubated with ¹²⁵I-A2 or ¹²⁵I-fVIII in 20 mM Tris-buffered saline pH 7.4, containing 5 mM CaCl₂, 0.05% Tween-20 in the presence or absence of unlabeled competitors for 1 h at 37° C. The radioactivity bound to the wells was counted using a γ-counter (Pharmacia). Affinity constants were derived from homologous and heterologous displacement data using the computer program LIGAND (Munson, P T and Rodbard, D. Anal. Biochem. 107:220-239 (1980)).
(§2) In order to localize fVIII region(s) involved in interaction with LRP, binding between ¹²⁵I-fVIII and immobilized LRP was competed by unlabeled fVIII fragments.

[2] = molecular target: T1, low density lipoprotein …; assay: competition assay: peptide 484-509 added with 125I-fVIII (1 nM) to LRP-coated wells; competitor of fVIII for LRP
Procedure: FIGS. 17A-17B. Effect of monoclonal antibodies and synthetic peptides on ¹²⁵fVIII binding to purified LRP. […] Binding of ¹²⁵I-fVIII in the presence antibodies or peptides is expressed as the percentage of its binding, when no competitor was added. The mean and standard deviation of the triplicate measurements are presented.
as §1

[3] = molecular target: T1, low density lipoprotein …; assay: RAP as competitor of 125I-fVIII (1 nM) binding to LRP-coated wells, LIGAND fit
[4] = molecular target: T1, low density lipoprotein …; assay: solid-phase heterologous ligand displacement: RAP competes with 125I-fVIII (1 nM) for LRP-coated wells, 1 h at 37 C
Procedure: FIGS. 15A-15B. Binding of ¹²⁵I-fVIII to purified LRP by ligand competition assay. ¹²⁵I-fVIII (1 nM) was incubated for 1 h at 37° C. in wells coated with LRP (•) or BSA (∘) in the presence of increasing concentrations of unlabeled competitors, fVIII (•, ∘) or vWf (Δ) (FIG. 15A) and RAP (•, ∘) (FIG. 15B). In the experiment (Δ), ¹²⁵I-fVIII was preincubated with vWf for 30 min at 37° C., prior to its addition to the wells. Following incubation, the wells were washed and ¹²⁵I-fVIII binding was determined. Binding of ¹²⁵I-fVIII in the presence of unlabeled fVIII, vWf, or RAP is expressed as the percentage of ¹²⁵fVIII binding, when no competitor was added. Each point represents the mean value of triplicates and the error bars display the standard deviation. The curves show a best fit of the data to a model describing heterologous ligand displacement from a single class of binding sites using the program LIGAND.
Homologous and heterologous ligand displacement assays were performed as previously described (Williams, S. E., et al., J. Biol. Chem. 267:9035-9040 (1992)). Microtiter wells were coated with purified LRP or BSA (3 μg/ml) in 50 mM Tris, 0.15 M NaCl, pH 8.0, for 16 h and then blocked with 3% BSA in TBS. […] The radioactivity bound to the wells was counted using a γ-counter (Pharmacia). […]

[5] = molecular target: LRP on mouse embryonic fibroblast (MEF) cells (mouse, UniProt Q91ZX7 20-4545); assay: cell-based or functional assay
[6] = molecular target: T1, low density lipoprotein …; assay: heterologous displacement of 125I-fVIII (1 nM) from LRP-coated wells; isolated A2 domain as competitor
Procedure: as §1, §2

[7] = molecular target: T1, low density lipoprotein …; assay: homologous displacement of 125I-A2 (5 nM) by unlabeled A2 (0-1750 nM) on immobilized LRP, program Ligand

T1 sequence (Q07954 20-4544, form in doubt): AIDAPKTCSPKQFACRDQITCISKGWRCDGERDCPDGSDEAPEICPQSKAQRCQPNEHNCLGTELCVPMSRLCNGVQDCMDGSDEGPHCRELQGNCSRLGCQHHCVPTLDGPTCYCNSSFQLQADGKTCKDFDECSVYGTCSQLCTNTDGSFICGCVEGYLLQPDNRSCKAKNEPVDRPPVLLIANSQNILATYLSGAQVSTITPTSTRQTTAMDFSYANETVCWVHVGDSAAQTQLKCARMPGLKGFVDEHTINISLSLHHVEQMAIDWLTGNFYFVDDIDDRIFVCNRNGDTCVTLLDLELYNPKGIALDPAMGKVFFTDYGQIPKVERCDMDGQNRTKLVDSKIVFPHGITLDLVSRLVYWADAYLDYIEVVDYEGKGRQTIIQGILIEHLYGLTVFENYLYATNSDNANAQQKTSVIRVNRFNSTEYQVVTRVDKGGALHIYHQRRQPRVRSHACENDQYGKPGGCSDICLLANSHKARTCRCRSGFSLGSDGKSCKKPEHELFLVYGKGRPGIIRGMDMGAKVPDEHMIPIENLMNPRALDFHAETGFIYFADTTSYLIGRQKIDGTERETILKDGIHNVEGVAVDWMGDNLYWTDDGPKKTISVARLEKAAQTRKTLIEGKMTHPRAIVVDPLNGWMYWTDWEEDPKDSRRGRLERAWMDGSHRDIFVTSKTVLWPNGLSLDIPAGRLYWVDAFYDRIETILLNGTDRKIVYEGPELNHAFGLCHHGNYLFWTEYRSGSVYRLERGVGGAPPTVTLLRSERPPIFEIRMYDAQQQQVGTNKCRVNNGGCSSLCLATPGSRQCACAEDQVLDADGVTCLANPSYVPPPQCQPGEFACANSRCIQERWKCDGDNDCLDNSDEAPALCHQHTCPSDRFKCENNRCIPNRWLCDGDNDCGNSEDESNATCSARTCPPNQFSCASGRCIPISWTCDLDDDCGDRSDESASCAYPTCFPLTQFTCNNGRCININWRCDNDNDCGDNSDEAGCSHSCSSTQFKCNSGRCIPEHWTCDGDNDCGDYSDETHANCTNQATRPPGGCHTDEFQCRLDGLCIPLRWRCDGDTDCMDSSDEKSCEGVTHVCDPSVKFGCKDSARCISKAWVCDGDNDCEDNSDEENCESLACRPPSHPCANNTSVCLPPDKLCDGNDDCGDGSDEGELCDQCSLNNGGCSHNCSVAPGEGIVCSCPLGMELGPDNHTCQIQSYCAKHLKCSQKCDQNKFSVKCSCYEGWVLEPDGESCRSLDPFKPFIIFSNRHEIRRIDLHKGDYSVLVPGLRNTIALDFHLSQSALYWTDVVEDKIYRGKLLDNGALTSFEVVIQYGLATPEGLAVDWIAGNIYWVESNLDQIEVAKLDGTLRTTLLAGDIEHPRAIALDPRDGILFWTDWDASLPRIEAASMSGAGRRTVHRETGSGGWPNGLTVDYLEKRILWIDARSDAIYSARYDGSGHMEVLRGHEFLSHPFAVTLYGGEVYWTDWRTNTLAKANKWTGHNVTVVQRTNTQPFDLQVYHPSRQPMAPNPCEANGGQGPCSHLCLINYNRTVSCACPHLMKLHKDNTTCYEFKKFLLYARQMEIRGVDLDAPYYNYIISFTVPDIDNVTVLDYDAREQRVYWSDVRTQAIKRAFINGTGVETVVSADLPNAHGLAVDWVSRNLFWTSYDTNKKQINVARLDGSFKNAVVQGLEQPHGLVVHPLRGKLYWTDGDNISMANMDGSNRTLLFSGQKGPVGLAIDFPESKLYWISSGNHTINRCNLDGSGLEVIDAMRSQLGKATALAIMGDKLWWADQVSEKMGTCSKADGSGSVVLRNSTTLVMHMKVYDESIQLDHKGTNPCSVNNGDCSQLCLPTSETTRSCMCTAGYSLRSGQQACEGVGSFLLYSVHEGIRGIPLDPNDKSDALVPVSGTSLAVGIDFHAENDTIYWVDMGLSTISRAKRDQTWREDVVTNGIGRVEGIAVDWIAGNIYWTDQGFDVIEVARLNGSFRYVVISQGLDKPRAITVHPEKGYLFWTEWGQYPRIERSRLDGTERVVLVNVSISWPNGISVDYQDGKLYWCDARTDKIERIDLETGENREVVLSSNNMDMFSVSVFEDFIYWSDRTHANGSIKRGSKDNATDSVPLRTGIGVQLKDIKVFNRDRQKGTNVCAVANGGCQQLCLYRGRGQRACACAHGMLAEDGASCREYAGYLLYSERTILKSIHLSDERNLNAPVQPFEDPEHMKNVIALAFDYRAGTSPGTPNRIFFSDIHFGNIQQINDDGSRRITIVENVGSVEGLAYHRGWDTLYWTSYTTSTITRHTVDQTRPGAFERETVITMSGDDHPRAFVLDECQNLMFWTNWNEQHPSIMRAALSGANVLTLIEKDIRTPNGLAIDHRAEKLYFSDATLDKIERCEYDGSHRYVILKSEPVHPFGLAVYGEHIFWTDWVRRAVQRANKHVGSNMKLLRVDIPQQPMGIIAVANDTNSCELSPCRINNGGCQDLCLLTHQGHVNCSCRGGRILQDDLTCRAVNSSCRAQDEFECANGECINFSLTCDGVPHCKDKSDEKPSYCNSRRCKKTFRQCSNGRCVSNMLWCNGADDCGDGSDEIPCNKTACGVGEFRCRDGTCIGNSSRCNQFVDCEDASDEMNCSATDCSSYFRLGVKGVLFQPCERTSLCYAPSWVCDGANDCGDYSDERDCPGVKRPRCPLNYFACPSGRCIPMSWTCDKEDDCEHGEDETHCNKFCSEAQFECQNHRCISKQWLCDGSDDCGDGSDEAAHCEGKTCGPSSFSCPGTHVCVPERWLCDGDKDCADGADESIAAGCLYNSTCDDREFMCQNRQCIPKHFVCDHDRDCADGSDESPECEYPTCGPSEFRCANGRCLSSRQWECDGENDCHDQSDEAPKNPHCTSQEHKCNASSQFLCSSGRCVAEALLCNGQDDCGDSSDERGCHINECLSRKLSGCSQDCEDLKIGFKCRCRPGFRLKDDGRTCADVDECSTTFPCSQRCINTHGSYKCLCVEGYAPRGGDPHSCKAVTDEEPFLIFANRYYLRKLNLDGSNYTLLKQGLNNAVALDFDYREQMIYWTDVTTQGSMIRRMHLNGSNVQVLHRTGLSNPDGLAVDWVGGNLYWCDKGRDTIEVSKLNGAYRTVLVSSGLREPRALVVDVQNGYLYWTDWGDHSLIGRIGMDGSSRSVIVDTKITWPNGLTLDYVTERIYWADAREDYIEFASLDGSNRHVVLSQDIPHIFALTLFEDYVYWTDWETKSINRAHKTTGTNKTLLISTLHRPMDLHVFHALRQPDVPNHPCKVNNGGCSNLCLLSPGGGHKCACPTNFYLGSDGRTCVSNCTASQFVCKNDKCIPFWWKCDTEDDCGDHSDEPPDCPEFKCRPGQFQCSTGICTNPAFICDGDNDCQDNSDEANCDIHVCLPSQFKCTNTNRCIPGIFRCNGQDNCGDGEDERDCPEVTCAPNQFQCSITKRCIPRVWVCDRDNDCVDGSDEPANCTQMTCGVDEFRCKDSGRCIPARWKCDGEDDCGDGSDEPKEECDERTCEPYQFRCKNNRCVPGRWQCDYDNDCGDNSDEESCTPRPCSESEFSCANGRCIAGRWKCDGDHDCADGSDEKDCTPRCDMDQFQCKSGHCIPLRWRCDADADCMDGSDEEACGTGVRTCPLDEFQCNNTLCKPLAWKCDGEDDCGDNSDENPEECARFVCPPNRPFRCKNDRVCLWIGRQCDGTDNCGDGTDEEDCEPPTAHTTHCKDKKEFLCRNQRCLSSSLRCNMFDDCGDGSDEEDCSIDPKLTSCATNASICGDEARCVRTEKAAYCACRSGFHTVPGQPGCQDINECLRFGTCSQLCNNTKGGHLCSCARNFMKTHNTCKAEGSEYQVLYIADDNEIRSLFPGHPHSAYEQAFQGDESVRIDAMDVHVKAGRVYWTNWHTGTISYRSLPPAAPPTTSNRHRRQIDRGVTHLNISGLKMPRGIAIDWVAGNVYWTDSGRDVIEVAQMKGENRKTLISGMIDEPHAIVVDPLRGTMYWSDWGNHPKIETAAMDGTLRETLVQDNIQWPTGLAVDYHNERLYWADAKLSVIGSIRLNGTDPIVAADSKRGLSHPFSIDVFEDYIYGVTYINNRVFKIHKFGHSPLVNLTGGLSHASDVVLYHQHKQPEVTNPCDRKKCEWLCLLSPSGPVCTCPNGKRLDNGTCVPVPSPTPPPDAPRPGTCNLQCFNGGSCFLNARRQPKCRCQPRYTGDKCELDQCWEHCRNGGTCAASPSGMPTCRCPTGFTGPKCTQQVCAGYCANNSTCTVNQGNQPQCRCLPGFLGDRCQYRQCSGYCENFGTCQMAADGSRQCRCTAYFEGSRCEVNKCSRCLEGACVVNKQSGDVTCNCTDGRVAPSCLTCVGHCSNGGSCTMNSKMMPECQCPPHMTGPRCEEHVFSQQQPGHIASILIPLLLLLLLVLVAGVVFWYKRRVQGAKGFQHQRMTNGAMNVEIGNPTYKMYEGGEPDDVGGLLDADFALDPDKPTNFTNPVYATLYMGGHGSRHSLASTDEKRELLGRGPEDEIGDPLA

B1: heavy chain (HCh) of factor VIII (other)
chain: ATRRYYLGAVELSWDYMQSDLGELPVDARFPPRVPKSFPFNTSVVYKKTLFVEFTDHLFNIAKPRPPWMGLLGPTIQAEVYDTVVITLKNMASHPVSLHAVGVSYWKASEGAEYDDQTSQREKEDDKVFPGGSHTYVWQVLKENGPMASDPLCLTYSYLSHVDLVKDLNSGLIGALLVCREGSLAKEKTQTLHKFILLFAVFDEGKSWHSETKNSLMQDRDAASARAWPKMHTVNGYVNRSLPGLIGCHRKSVYWHVIGMGTTPEVHSIFLEGHTFLVRNHRQASLEISPITFLTAQTLLMDLGQFLLFCHISSHQHDGMEAYVKVDSCPEEPQLRMKNNEEAEDYDDDLTDSEMDVVRFDDDNSPSFIQIRSVAKKHPKTWVHYIAAEEEDWDYAPLVLAPDDRSYKSQYLNNGPQRIGRKYKKVRFMAYTDETFKTREAIQHESGILGPLLYGEVGDTLLIIFKNQASRPYNIYPHGITDVRPLYSRRLPKGVKHLKDFPILPGEIFKYKWTVTVEDGPTKSDPRCLTRYYSSFVNMERDLASGLIGPLLICYKESVDQRGNQIMSDKRNVILFSVFDENRSWYLTENIQRFLPNPAGVQLEDPEFQASNIMHSINGYVFDSLQLSVCLHEVAYWYILSIGAQTDFLSVFFSGYTFKHKMVYEDTLTLFPFSGETVFMSMENPGLWILGCHNSDFRNRGMTALLKVSSCDKNTGDYYEDSYEDISAYLLSKNNAIEPRSFSQNSRHRSTRQKQFNATTIPENDIEKTDPWFAHRTPMPKIQNVSSSDLLMLLRQSPTPHGLSLSDLQEAKYETFSDDPSPGAIDSNNSLSEMTHFRPQLHHSGDMVFTPESGLQLRLNEKLGTTAATELKKLDFKVSSTSNNLISTIPSDNLAAGTDNTSSLGPPSMPVHYDSQLDTTLFGKKSSPLTESGGPLSLSEENNDSKLLESGLMNSQESSWGKNVSSTESGRLFKGKRAHGPALLTKDNALFKVSISLLKTNKTSNNSATNRKTHIDGPSLLIENSPSVWQNILESDTEFKKVTPLIHDRMLMDKNATALRLNHMSNKTTSSKNMEMVQQKKEGPIPPDAQNPDMSFFKMLFLPESARWIQRTHGKNSLNSGQGPSPKQLVSLGPEKSVEGQNFLSEKNKVVVGKGEFTKDVGLKEMVFPSSRNLFLTNLDNLHENNTHNQEKKIQEEIEKKETLIQENVVLPQIHTVTGTKNFMKNLFLLSTRQNVEGSYDGAYAPVLQDFRSLNDSTNRTKKHTAHFSKKGEEENLEGLGNQTKQIVEKYACTTRISPNTSQQNFVTQRSKRALKQFRLPLEETELEKRIIVDDTSTQWSKNMKHLTPSTLTQIDYNEKEKGAITQSPLSDCLTRSHSIPQANRSPLPIAKVSSFPSIRPIYLTRVLFQDNSSHLPAASYRKKDSGVQESSHFLQGAKKNNLSLAILTLEMTGDQREVGSLGTSATNSVTYKKVENTVLPKPDLPKTSGKVELLPKVHIYQKDLFPTETSNGSPGHLDLVEGSLLQGTEGAIKWNEANRPGKVPFLRVATESSAKTPSKLLDPLAWDNHYGTQIPKEEWKSQEKSPEKTAFKKKDTILSLNACESNHAIAAINEGQNKPEIEVTWAKQGRTERLCSQNPPVLKRHQR
notes: Prepared from plasma-derived fVIII
**Q.** For B1, which Ki [1] is on record?
**A.** Its Ki is 120 nM.

**Q.** With RPLYSRRLPKGVKHLKDFPILPGEIF [synthetic peptide of fVIII A2 domain residues 484-509] as the binder, how does the “IC50 (read off the curve)” value [2] read?
**A.** The value was about 1000 nM.

B2: 39 kDa receptor-associated protein (RAP), human, expressed in bacteria (ligand)
chain: YSREKNQPKPSPKRESGEEFRMEKLNQLWEKAQRLHLPPVRLAELHADLKIQERDELAWKKLKLDGLDEDGEKEARLIRNLNVILAKYGLDGKKDARQVTSNSLSGTQEDGLDDPRLEKLWHKAKTSGKFSGEELDKLWREFLHHKEKVHEYNVLLETLSRTEEIHENVISPSDLSDIKGSVLHSRHTELKEKLRSINQGLDRLRRVSHQGYSTEAEFEEPRVIDLWDLAQSANLTDKELEAFREELKHFEAKIEKHNHYQKQLEIAHEKLRHAESVGDGERVSRSREKHALLEGRTKELGYTVKKHLQDLSGRISRARHNEL
notes: also called alpha2 macroglobulin receptor-associated protein
**Q.** Which results are given for B2?
**A.** Ki [3]: 2.5 nM; IC50 (read off the curve) [4]: ~2 nM

B3: A2 subunit (A2 domain) of factor VIII, isolated from thrombin-activated fVIII (other)
chain: SVAKKHPKTWVHYIAAEEEDWDYAPLVLAPDDRSYKSQYLNNGPQRIGRKYKKVRFMAYTDETFKTREAIQHESGILGPLLYGEVGDTLLIIFKNQASRPYNIYPHGITDVRPLYSRRLPKGVKHLKDFPILPGEIFKYKWTVTVEDGPTKSDPRCLTRYYSSFVNMERDLASGLIGPLLICYKESVDQRGNQIMSDKRNVILFSVFDENRSWYLTENIQRFLPNPAGVQLEDPEFQASNIMHSINGYVFDSLQLSVCLHEVAYWYILSIGAQTDFLSVFFSGYTFKHKMVYEDTLTLFPFSGETVFMSMENPGLWILGCHNSDFRNRGMTALLKVSSCDKNTGDYYEDSYEDISAYLLSKNNAIEPR
modifications: 125I-labelled where used as tracer
notes: Protein was made from plasma-derived fVIII
**Q.** With B3 as the binder, how does the “inhibition of degradation of 125I-fVIII/vWf complex by MEF cells by a 1000-fold excess of A2, after 4 hours” value [5] read?
**A.** The value was over 60%.

**Q.** What about the “inhibition of internalization of 125I-fVIII/vWf complex by MEF cells by a 1000-fold excess of A2, after 4 hours” value [5] of the same binder?
**A.** Its value is over 70%.

**Q.** And the Ki [6]?
**A.** The Ki was 132 nM.

**Q.** And the Kd [7]?
**A.** The Kd was 130 nM.
